{"source": "patent US20060251644A1", "key": {"[1]": {"biological_target": "recombinant human IgE, SE44 (human) (UniProt P01854)", "test": "ELISA titration on plate-coated SE44 (human IgE); Fab detected with biotin-sheep anti-human Fd and Neutra-avidin-AP (Example 6)"}, "[2]": {"biological_target": "recombinant human IgE, SE44 (human) (UniProt P01854)", "test": "ELISA titration on plate-coated SE44 (human IgE); Fab detected with biotin-sheep anti-human Fd and Neutra-avidin-AP (Example 6)", "remark": "listed apart in the source"}}, "note": "Where two headings read alike, the source gives them in different places."}
{"binder": "murine TES-C21 Fab (Fab, from another filing, V domains shown) VH: QVQLQQSGAELMKPGASVKISCKTTGYTFSMYWLEWVKQRPGHGLEWVGEISPGTFTTNYNEKFKAKATFTADTSSNTAYLQLSGLTSEDSAVYFCARFSHFSGSNYDYFDYWGQGTSLTVSS VL: DILLTQSPAILSVSPGERVSFSCRASQSIGTNIHWYQQRTDGSPRLLIKYASESISGIPSRFSGSGSGTEFTLNINSVESEDIADYYCQQSDSWPTTFGGGTKLEIK", "values": [{"measurement": "EC50 (read off the curve)", "setting": "[1]", "result": 0.04, "unit": "µg/mL"}, {"measurement": "EC50 (read off the curve)", "setting": "[2]", "result": 0.05, "unit": "µg/mL"}]}
